Data from patent publication US20190323012, “TNF-Alpha-Binding Aptamer, And Therapeutic Use For Same” (BIOIS CO., LTD., published 2019).

B1: ATK001 (ssRNA)
RNA: GGGAGGACGAUGCGGCCACUGGCUAGGAACUCGAGUACUGGGUGGCAGACGACUCGCCCGA
modifications: 2'-F on all C and U
B2: ATK007 (ssRNA)
RNA: GCGGAAGCGUGCUGGGCCCGGCUUGCAGGUCGCCGAAAUGACCGCACACAUAACCCAGAGGUCGAU
modifications: 2'-F on all C and U

How the values were obtained:
ErbB3 = ErbB3 (UniProt P21860 P21860:20-643); test: SPR; specificity control; printed as about 104 nM, read as 10^4 nM (lost superscript); details: tags: ThermoFisher
ErbB3, sequence (P21860 20-643, one chain of several): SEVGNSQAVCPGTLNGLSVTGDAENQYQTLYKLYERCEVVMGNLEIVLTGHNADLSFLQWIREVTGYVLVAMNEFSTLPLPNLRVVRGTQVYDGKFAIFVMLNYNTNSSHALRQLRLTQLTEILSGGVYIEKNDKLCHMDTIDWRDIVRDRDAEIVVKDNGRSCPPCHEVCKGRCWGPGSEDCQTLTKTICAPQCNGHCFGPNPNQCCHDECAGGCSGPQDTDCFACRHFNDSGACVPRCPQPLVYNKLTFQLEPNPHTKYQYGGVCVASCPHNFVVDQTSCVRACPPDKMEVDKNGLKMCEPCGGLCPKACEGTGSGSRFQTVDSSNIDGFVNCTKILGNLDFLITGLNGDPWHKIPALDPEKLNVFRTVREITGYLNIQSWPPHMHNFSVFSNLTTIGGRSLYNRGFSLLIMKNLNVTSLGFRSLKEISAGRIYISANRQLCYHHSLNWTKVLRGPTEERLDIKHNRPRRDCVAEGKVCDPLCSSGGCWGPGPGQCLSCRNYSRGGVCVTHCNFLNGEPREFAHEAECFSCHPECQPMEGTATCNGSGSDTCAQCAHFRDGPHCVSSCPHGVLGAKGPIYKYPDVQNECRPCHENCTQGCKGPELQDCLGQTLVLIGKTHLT
Description: (§1) In order to determine kinetics, the flow rate was changed to 30 μL/min.
(§2) In order to evaluate the binding specificity of the RNA aptamer to TNF-α through SPR analysis in the same manner as in <Example 4> above, the binding capability to ErbB2 (ThermoFisher, USA) (Nucleic Acid Ther. 2011 June; 21(3):173-178), ErbB3 (ThermoFisher, USA) (Proc. Natl. Acad. Sci. USA. (2012), 109(33):13237-42) and IGF-BP1 (ThermoFisher, USA) (Insulin-like growth factor-binding protein 1) (Crit. Rev. Oncol. Hematol. (2008), 66(2):91-98), in addition to TNF-α, was quantified in Kd. The results are shown in [FIG. 5] (FIG. 5a illustrating the results of measurement of binding capability of ATK001, FIG. 5b illustrating the results of measurement of binding capability of ATK007, and FIG. 5c illustrating the results of measurement of binding capability of ATK001).

ErbB2 = ErbB2 (UniProt P04626 P04626:23-652); test: as above; details: tags: ThermoFisher
Description: as §1, §2

TNF-alpha [1] = target: T1, TNF-alpha (Homo sapiens, UniProt P01375 P01375:77-233); test: SPR; range given for ATK001 and ATK007 together; TNF-alpha immobilized on CM5, HBS; details: tags: recombinant human TNF-alpha (Sigma-Aldrich; biotinylated for SELEX); chain copies: 3
T1 sequence (P01375 77-233, one chain of several): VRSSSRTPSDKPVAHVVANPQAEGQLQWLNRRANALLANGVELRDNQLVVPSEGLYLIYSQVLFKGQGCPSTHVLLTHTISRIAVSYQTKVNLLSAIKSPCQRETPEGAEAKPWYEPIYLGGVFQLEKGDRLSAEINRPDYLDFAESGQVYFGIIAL
Description: SPR (Surface Plasmon Resonance) analysis was performed using a Biacore2000 (BIACORE, USA). A mixture of NHS (0.1 M N-hydroxysuccinimide) and DEC (0.4 M N-ethyl-N′-(dimethylaminopropyl)carbodiimide) in equal amounts (50 μL) was prepared and allowed to flow at 5 μL/min for 40 sec to thus activate a CM5 sensor chip. When 150-200 RU appeared, TNF-α protein to be immobilized was mixed with sodium acetate (pH 4.0) and allowed to flow at […]. In order to evaluate whether or not the protein was immobilized, 50 mM NaOH was allowed to flow for 5 sec. At 80° C., RNA aptamers ATK001 and ATK007 were denatured for 5 min and then restored at room temperature for 15 min, thus preparing an analyte (RNA).
as §1

TNF-alpha [2] = target: T1, TNF-alpha; test: EMSA; 30 mM Tris-HCl pH 7.5, 150 mM NaCl, 1.5 mM MgCl2, 2 mM DTT, tRNA, room temperature; radiolabeled RNA 50 pM; details: tags: recombinant human TNF-alpha (Sigma-Aldrich; biotinylated for SELEX); chain copies: 3
Description: The single-stranded nucleic acids (50 pM) binding to TNF-α, selected in <Example 2> and labeled with radioisotopes, were reacted with TNF-α protein in a manner in which the amount of TNF-α protein was increased (ranging from 0 to 320 nM). Here, the total amount of the aptamer, TNF-α protein, binding buffer (30 mM Tris-HCl (pH 7.5), 150 mM NaCl, 1.5 mM MgCl₂, and 2 mM DTT), and […] tRNA was adjusted to 40 μL, followed by binding at room temperature for 30 min. 6×BPB was added thereto, after which electrophoresis at 4° C. and 120 V using a 6% native gel (6% polyacrylamide, 1×TBE, 10 mM MgCl₂, 2% glycerol), exposure to an X-ray film and development were performed. The dissociation constant Kd was determined by calculating the amount of the RNA aptamer binding to TNF-α relative to the total RNA aptamer.
The 4% non-denatured acrylamide gel images of the TNF-α-bound RNA aptamer (C) and the TNF-α-unbound RNA aptamer (F), resulting from reacting the radioisotope-labeled 50 pM RNA aptamer ATK001 (a) and 50 pM RNA aptamer ATK007 (b) with TNF-α in a manner in which the amount of TNF-α was increased (ranging from 0 to 320 nM), are shown in a and b of FIG. 4. The percentage of RNA binding to TNF-α was determined and is graphed in c of FIG. 4.

Binder | Kd (ErbB3) | Kd (ErbB2) | Kd (TNF-alpha [1]) | Kd (TNF-alpha [2])
B1 | ~10 µM | ~10 µM | 0.00529 µM | –
B2 | ~10 µM | ~10 µM | 0.00529 µM | ~0.005 µM
